Source: PMC11806106

Legend:
[1] = target: MOR FRET sensor (rat MOR with sYFP2 inserted after G267, truncated after T370, mTurquoise2 at the C-terminus) (rat) (UniProt P33535)
[2] = target: MOR FRET sensor (rat MOR with sYFP2 inserted after G267, truncated after T370, mTurquoise2 at the C-terminus) (rat) (UniProt P33535); remark: listed apart in the source

T370 sequence (P33535 1-370): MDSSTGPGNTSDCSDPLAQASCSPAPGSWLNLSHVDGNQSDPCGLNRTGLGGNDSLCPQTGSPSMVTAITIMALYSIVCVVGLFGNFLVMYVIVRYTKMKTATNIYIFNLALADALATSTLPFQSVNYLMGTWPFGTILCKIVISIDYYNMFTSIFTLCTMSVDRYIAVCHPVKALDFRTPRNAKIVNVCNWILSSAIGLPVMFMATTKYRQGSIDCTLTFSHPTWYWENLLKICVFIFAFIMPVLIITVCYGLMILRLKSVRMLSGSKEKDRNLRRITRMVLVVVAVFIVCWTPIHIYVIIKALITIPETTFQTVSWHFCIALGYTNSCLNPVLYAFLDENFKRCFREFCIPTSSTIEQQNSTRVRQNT

Substance	half-time of deactivation of the MOR FRET sensor after washout of 100 µM agonist (single-cell FRET) [1] [s]	EC50 of the agonist-induced change of the FRET emission ratio of the MOR FRET conformation sensor (concentration-response, 96-well plate reader) [2] [nM]	on-rate Kon, calculated from the Koff of sensor deactivation and the EC50 (single-cell FRET, 100 µM agonist) [1] [M⁻¹ s⁻¹]
Met-enkephalin (peptide)	< 10	–	–
DAMGO (peptide)	< 10	430	167000
